Data from patent EP4703474A1, “ANTI-LRRC15 ANTIBODY” (priority 2023, dated 2024).
Where a chain is given by its changes, count along the chain named.

B1: H02L01-PBD (conjugate)
heavy: EVQLVESGGGLVQPGGSLRLSCAASGFTFRDYYMAWVRQAPGKGLEWVSSIGFDESRTYYADSVKGRFTISRDDSKNTLYLQMNSLRAEDTAVYYCARHGVSYYSGDNWFAYWGQGTLVTVSSASTKGPSVFPLAPSSKSTSGGTAALGCLVKDYFPEPVTVSWNSGALTSGVHTFPAVLQSSGLYSLSSVVTVPSSSLGTQTYICNVNHKPSNTKVDKKVEPKSCDKTHTCPPCPAPEAAGGPSVFLFPPKPKDTLMISRTPEVTCVVVDVSHEDPEVKFNWYVDGVEVHNAKTKPREEQYNSTYRVVSVLTVLHQDWLNGKEYKCKVSNKALAAPIEKTISKAKGQPREPQVYTLPPSREEMTKNQVSLTCLVKGFYPSDIAVEWESNGQPENNYKTTPPVLDSDGSFFLYSKLTVDKSRWQQGNVFSCSVMHEALHNHYTQKSLSLSPGK
light: DIQMTQSPSSLSASVGDRVTITCKSSQGLLYSGDQKNYLAWYQQKPGKAPKLLIYWASTRQSGVPSRFSGSGSGTDFTLTISSLQPEDFATYYCQQYYDPPYTFGQGTKVEIKRTVAAPSVFIFPPSDEQLKSGTASVVCLLNNFYPREAKVQWKVDNALQSGNSQESVTEQDSKDSTYSLSSTLTLSKADYEKHKVYACEVTHQGLSSPVTKSFNRGEC
B2: H02L01-V2-PBD (conjugate)
heavy: B1 heavy with Y103R
light: B1 light
B3: H02L01-V1-PBD (conjugate)
heavy: B1 heavy with Y103K
light: B1 light

What was measured:
[1] = test system: LRRC15-positive human osteosarcoma cell line HuO9; assay: In vivo antitumor effect, HuO9 subcutaneous transplant model; details: tail vein, on Day 10, female SCID mice
Procedure: The antitumor effects of the antibody-drug conjugates were evaluated by using animal models in which cells of the human tumor cell line had been transplanted into immunodeficient mice. 4 to 6 Week-old SCID mice (CB17/Icr-Prkdc[scid]/CrlCrlj, Jackson Laboratory Japan, Inc.) were habituated for 3 days or more under SPF conditions before experimental use. The mice were fed with sterilized solid feed (FR-2, Funabashi Farms Co., Ltd.) and given sterilized tap water (prepared by adding a solution of 5 to 15 ppm sodium hypochlorite). The major and minor diameters of the transplanted tumors were measured twice a week with an electronic digital caliper ([…] Corporation), and the estimated tumor volume was calculated using the following formula. Estimated tumor volume (mm^3) = 1/2 × major diameter (mm) × [minor diameter (mm)]^2 All antibody-drug conjugates were diluted with ABS and administered into the tail vein at doses shown in each Example. In addition, ABS (vehicle) or control hIgG-PBD prepared in Reference Example 4 was administered as the control group, in a similar manner. 5 to 6 Mice were used per group in the experiment. Based on publicly known information, LRRC15-positive human osteosarcoma cell line HuO9 (JCRB) was suspended in Matrigel (Corning Incorporated), 5.0 × 10^6 cells were subcutaneously transplanted into the right flank of female SCID mice (Day 0), and random grouping was performed on Day 10. On the day of grouping, the vehicle, the antibody-drug conjugates […]-PBD, […]-V1-PBD, and […]-V2-PBD prepared in Example 5, or the control hIgG-PBD prepared in Reference Example 4 was administered at a dose of 0.4 mg/kg, and the huM25-MMAE prepared in Reference Example 5 was administered at a dose of 0.4 mg/kg or 3.6 mg/kg into the tail vein. The abscissa indicates the number of days, and the ordinate indicates estimated tumor volume, and the error bars indicate SEM values. […] The antitumor effects of the antibody-drug conjugates were evaluated by using animal models in which cells of a human tumor cell line had been transplanted into immunodeficient mice, or cells of a mouse tumor cell line had been transplanted into immunocompetent mice. 4 to 6 Week-old SCID mice (CB17/Icr-Prkdc[scid]/CrlCrlj, Jackson Laboratory Japan, Inc.), NSG mice (NOD.Cg-Prkdcscid Il2rgtm1Wjl/SzJ, Jackson Laboratory Japan, Inc.), or B6J mice (C57BL/6J, Jackson Laboratory Japan, Inc.) were habituated for 3 days or more under SPF conditions before experimental use. The mice were fed with sterilized solid feed and given sterilized tap water. The major and minor diameters of the transplanted tumors were measured twice a week with an electronic digital caliper (Mitutoyo Corporation), and the estimated tumor volume was calculated using the following formula. Estimated tumor volume (mm^3) = 1/2 × major diameter (mm) × [minor diameter (mm)]^2 All antibody-drug conjugates were diluted with ABS and administered into the tail vein at doses shown in each Example. In addition, ABS (vehicle) or control hIgG-PBD prepared in Reference Example 4 was administered as the control group, in a similar manner. 5 to 6 Mice were used per group in the experiment. Based on publicly known information, LRRC15-positive human osteosarcoma cell line HuO9 (JCRB) was suspended in Matrigel (Corning Incorporated), 5.0 × 10^6 cells were subcutaneously transplanted into the right flank of female SCID mice (Day 0), and random grouping was performed on Day 10. On the day of grouping, a vehicle, the antibody-drug conjugate […]-V1-PBD or […]-V2-PBD prepared in Example 5, or huM25-PBD prepared in Reference Example 6-2 was administered into the tail vein at a dose of 0.3 mg/kg. The abscissa indicates the number of days, and the ordinate indicates estimated tumor volume, and the error bars indicate SEM values.

[2] = test system: Triple-negative breast carcinoma cell line HCC1806; assay: In vivo antitumor effect, HCC1806 subcutaneous transplant model; details: 0.4 mg/kg, tail vein, on Day 7, female SCID mice
Procedure: The antitumor effects of the antibody-drug conjugates were evaluated by using animal models in which cells of a human tumor cell line had been transplanted into immunodeficient mice, or cells of a mouse tumor cell line had been transplanted into immunocompetent mice. 4 to 6 Week-old SCID mice (CB17/Icr-Prkdc[scid]/CrlCrlj, Jackson Laboratory Japan, Inc.), NSG mice (NOD.Cg-Prkdcscid Il2rgtm1Wjl/SzJ, Jackson Laboratory Japan, Inc.), or B6J mice (C57BL/6J, Jackson Laboratory Japan, Inc.) were habituated for 3 days or more under SPF conditions before experimental use. The mice were fed with sterilized solid feed and given sterilized tap water. The major and minor diameters of the transplanted tumors were measured twice a week with an electronic digital caliper (Mitutoyo Corporation), and the estimated tumor volume was calculated using the following formula. Estimated tumor volume (mm^3) = 1/2 × major diameter (mm) × [minor diameter (mm)]^2 All antibody-drug conjugates were diluted with ABS and administered into the tail vein at doses shown in each Example. In addition, ABS (vehicle) or control hIgG-PBD prepared in Reference Example 4 was administered as the control group, in a similar manner. 5 to 6 Mice were used per group in the experiment. To analyze the LRRC15 expression in mouse tumor models, immunohistochemical staining of LRRC15 was performed. […]

[3] = 0.4 mg/kg, huM25-MMAE at 0.4 mg/kg or 3.6 mg/kg
[4] = 0.3 mg/kg, huM25-PBD at the same dose

Row | Molecule | antitumor effect (estimated tumor volume) [1, 3] | antitumor effect (estimated tumor volume) [2] | antitumor effect (estimated tumor volume) [1, 4] | tumor regression ([1]; 0.4 mg/kg)
1 | B1 | antitumor activity higher than that of the vehicle, the control hIgG-PBD, and huM25-MMAE | antitumor activity higher than that of the vehicle |  | 
2 | B2 | antitumor activity higher than that of the vehicle, the control hIgG-PBD, and huM25-MMAE |  | antitumor activity higher than that of the vehicle and huM25-PBD | lead to tumor regression
3 | B3 | antitumor activity higher than that of the vehicle, the control hIgG-PBD, and huM25-MMAE | antitumor activity higher than that of the vehicle | antitumor activity higher than that of the vehicle and huM25-PBD | lead to tumor regression
